Measurements from PMC8328229 (Methods in enzymology, 2021).
Primed or numbered codes have the meaning given here. Where no end group is shown, it is not given here. FITC′ = fluorescein

T1: MBP-tagged Methanocaldococcus jannaschii YcaO (Methanocaldococcus jannaschii, UniProt Q58494 1-385)
T1 sequence (looked up): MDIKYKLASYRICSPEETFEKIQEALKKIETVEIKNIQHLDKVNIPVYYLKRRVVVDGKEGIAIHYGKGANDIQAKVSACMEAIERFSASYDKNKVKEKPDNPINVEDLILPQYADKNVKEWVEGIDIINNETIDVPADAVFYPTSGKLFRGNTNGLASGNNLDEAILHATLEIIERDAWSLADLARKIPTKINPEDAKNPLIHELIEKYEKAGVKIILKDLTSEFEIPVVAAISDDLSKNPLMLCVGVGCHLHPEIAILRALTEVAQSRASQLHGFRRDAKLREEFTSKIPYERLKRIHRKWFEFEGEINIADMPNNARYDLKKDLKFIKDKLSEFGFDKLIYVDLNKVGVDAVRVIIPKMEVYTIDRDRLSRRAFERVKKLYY


Assays:
[1] = target: FITC-labeled M. acetivorans McrA 13-mer peptide (GG-…) (Methanosarcina acetivorans); experiment: fluorescence polarisation
M. acetivorans TfuA = conditions: FP; 25 °C, 1 h; ref Mahanta et al., 2018; cited from earlier work
MjYcaO = conditions: cited from earlier work
[2] = target: MBP-tagged Methanosarcina acetivorans YcaO (Methanosarcina acetivorans); experiment: fluorescence polarisation
[3] = target: T1, MBP-tagged Methanocaldococcus …; experiment: fluorescence polarisation

Row | fold reduction of affinity against the wild-type peptide [2] [fold] | Molecule | also measured
1 |  | MBP-tagged Methanosarcina acetivorans YcaO (enzyme) | Kd [1]: 700 nM
2 |  | GG-RLGFFGFDLQD [native McrA peptide] | binding (M. acetivorans TfuA): not detected
3 |  | Nc1ncnc2c1ncn2[C@@H]1O[C@H](COP(=O)(O)OP(=O)(O)OP(=O)(O)O)[C@@H](O)[C@H]1O [ATP] | ATP-derived by-products of thioamidation (MjYcaO; 31P NMR, YcaO-catalyzed thioamidation, ref Mahanta et al., 2018): ADP and phosphate (Pi) were found to be the by-products; ATP hydrolysis in the absence of the McrA peptide substrate (MjYcaO; absence of McrA peptide, ref Dong et al., 2019): YcaO can hydrolyze ATP to ADP and Pi unproductively
4 |  | RLGFFGFDLQD [wild-type MBP-tagged McrA peptide (M. acetivorans McrA 11-mer)] | Ki [2]: 700 nM
5 | 14 | RLAFFGFDLQD [MBP-tagged McrA peptide, Ala substitution of Gly462] | 
6 | 12 | RLGFFGFALQD [MBP-tagged McrA peptide, Ala substitution of Asp467] | 
7 |  | {FITC′}-GGRLGFYGYDLQD [FITC-labeled M. jannaschii McrA 13-mer peptide (GG-RLGFYGYDLQD)] | Kd [3]: 1100 nM
8 | 14 | RLGFFAFDLQD [MBP-tagged McrA peptide, Ala substitution of Gly465] | 
9 | 24 | RLGFFGFDLAD [MBP-tagged McrA peptide, Ala substitution of Gln469] | 
10 | 14 | RLGFFGFDAQD [MBP-tagged McrA peptide, Ala substitution of Leu468] | 
11 | 11 | RLGFAGFDLQD [MBP-tagged McrA peptide, Ala substitution of Phe464] | 
12 | 28 | RAGFFGFDLQD [MBP-tagged McrA peptide, Ala substitution of Leu461] | 
